Experimental data: patent US20190359687A1

Tests used:
[1] = molecular target: human glycophorin A on human red blood cells or red blood cell membranes (human) (UniProt P02724); experiment: scFv 7 ug/ml on intact human RBC, unbound scFv by ELISA; pre-dilution
[2] = molecular target: human glycophorin A on human red blood cells or red blood cell membranes (human) (UniProt P02724); experiment: scFv on intact human RBC, unbound scFv by ELISA; 0 min after 200-fold dilution
[3] = molecular target: human glycophorin A on human red blood cells or red blood cell membranes (human) (UniProt P02724); experiment: scFv on intact human RBC, unbound scFv by ELISA; 5 min after 200-fold dilution
[4] = molecular target: human glycophorin A on human red blood cells or red blood cell membranes (human) (UniProt P02724); experiment: scFv on intact human RBC, unbound scFv by ELISA; 20 min after 200-fold dilution
[5] = molecular target: human glycophorin A on human red blood cells or red blood cell membranes (human) (UniProt P02724); experiment: scFv on intact human RBC, unbound scFv by ELISA; 60 min after 200-fold dilution
[6] = molecular target: human glycophorin A on human red blood cells or red blood cell membranes (human) (UniProt P02724); experiment: scFv on intact human RBC, unbound scFv by ELISA; 120 min after 200-fold dilution
[7] = molecular target: purified human glycophorin A protein (Sigma, cat # G5017) (human) (UniProt P02724); experiment: ELISA, native hGPA
[8] = molecular target: recombinant human GPA ectodomain (human) (UniProt P02724); experiment: ELISA, rec hGPA ectodomain
[9] = molecular target: T1, GP5-10 alanine scanning peptide (human); experiment: alanine scanning peptide ELISA
T1 sequence (peptide, N-terminal biotin): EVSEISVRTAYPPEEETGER

[10] = molecular target: T2, GP5-12 alanine scanning peptide (human); experiment: alanine scanning peptide ELISA
T2 sequence (peptide, N-terminal biotin): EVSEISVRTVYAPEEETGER

[11] = molecular target: T3, GP5-15 alanine scanning peptide (human); experiment: alanine scanning peptide ELISA
T3 sequence (peptide, N-terminal biotin): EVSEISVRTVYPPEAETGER

[12] = molecular target: human glycophorin A on human red blood cells or red blood cell membranes (human) (UniProt P02724); experiment: ELISA, Fab on coated human RBC membranes

B1: TPP-5906 parental scFv (humanized and germlined 6C12) (scFv)
scFv: DIQLTQSPSFLSASVGDRVTITCRASSSVSYIYWFQQKPGKAPKLLIYATSTLQSGVPSRFSGSGSGTEYTLTISSLQPEDFATYYCHQRNSFPYTFGQGTKLEIKGGGGSGGGGSGGGGSGGGGSEVQLVQSGAEVKKPGASVKVSCKASGYTFTTYTIHWVRQAPGQGLEWMGYINPSSGYTRYNPKFKGRVTMTRDKSTSTAYMELRSLRSDDTAVYYCQTGTRDYWGQGTTVTVSS
- percentage of input scFv antibody bound [1]: 100%
- percentage of input scFv antibody bound [2]: 90%
- percentage of input scFv antibody bound [3]: 16%
- percentage of input scFv antibody bound [4]: 0%
- percentage of input scFv antibody bound [5]: 3%
- percentage of input scFv antibody bound [6]: 0%

B2: TPP-5321 (Fab, V domains shown)
VH: EVQLVQSGAEVKKPGASVKVSCKASGYTFTTYTIHWVRQAPGQGLEWIGIINPSSDYTRYNPKFKDRVTLTTDKSTSTAYMELRSLRSDDTAVYYCQTGTRDYWGQGTTVTVSS
VL: DIQLTQSPSFLSASVGDRVTITCSAASSVSYIYWFQQKPGKAPKLLIYSTSTLPSGVPSRFSGSGSGTEYTLTISSLQPEDFATYYCHQRNSFPFTFGQGTKLEIKR
- binding by ELISA relative to parental [7]: 0.06

B3: TPP-5349 (Fab, V domains shown)
VH: EVQLVQSGAEVKKPGASVKVSCKASGYTFTTYTIHWVRQAPGQGLEWIGYINPSSDYTRYNPKFKDRVTLTTDKSTSTAYMELRSLRSDDTAVYYCQTGTRDYWGQGTTVTVSS
VL: DIQLTQSPSFLSASVGDRVTITCSAASSVSYIYWFQQKPGKAPKLLIYSASTLPSGVPSRFSGSGSGTEYTLTISSLQPEDFATYYCHQRNSFPFTFGQGTKLEIKR
- binding by ELISA relative to parental [8]: 0.09

B4: TPP-5336 (Fab, V domains shown)
VH: EVQLVQSGAEVKKPGASVKVSCKASGYTFTTYTIHWVRQAPGQGLEWIGYINPSSDYTRYNPKFKDRVTLTTDKSTSTAYMELRSLRSDDTAVYYCQRGTRDYWGQGTTVTVSS
VL: DIQLTQSPSFLSASVGDRVTITCSAASSVSYIYWFQQKPGKAPKLLIYSTSTLPSGVPSRFSGSGSGTEYTLTISSLQPEDFATYYCHQRNSFPFTFGQGTKLEIKR
- binding by ELISA relative to parental [7]: 0.06

B5: TPP-5353 (Fab, V domains shown)
VH: EVQLVQSGAEVKKPGASVKVSCKASGYTFTTYTIHWVRQAPGQGLEWIGYINPSSDYTRYNPKFKDRVTLTTDKSTSTAYMELRSLRSDDTAVYYCQTGTRDYWGQGTTVTVSS
VL: DIQLTQSPSFLSASVGDRVTITCSAASSVSYIYWFQQKPGKAPKLLIYSTSTLPSGVPSRFSGSGSGTEYTLTISSLQPEDFATYYCHQLNSFPFTFGQGTKLEIKR
- binding by ELISA relative to parental [7]: 0.04

B6: TPP-5906 Fab (Fab, V domains shown)
VH: EVQLVQSGAEVKKPGASVKVSCKASGYTFTTYTIHWVRQAPGQGLEWMGYINPSSGYTRYNPKFKGRVTMTRDKSTSTAYMELRSLRSDDTAVYYCQTGTRDYWGQGTTVTVSS
VL: DIQLTQSPSFLSASVGDRVTITCRASSSVSYIYWFQQKPGKAPKLLIYATSTLQSGVPSRFSGSGSGTEYTLTISSLQPEDFATYYCHQRNSFPYTFGQGTKLEIKR
- percent reduction of binding [9]: > 95%
- percent reduction of binding [10]: > 95%
- percent reduction of binding [11]: > 95%

B7: TPP-5346 (Fab, V domains shown)
VH: EVQLVQSGAEVKKPGASVKVSCKASGYTFTTYTIHWVRQAPGQGLEWIGYINPSSDYTRYNPKFKDRVTLTTDKSTSTAYMELRSLRSDDTAVYYCQTGTRDYWGQGTTVTVSS
VL: DIQLTQSPSFLSASVGDRVTITCSAASSVSYIAWFQQKPGKAPKLLIYSTSTLPSGVPSRFSGSGSGTEYTLTISSLQPEDFATYYCHQRNSFPFTFGQGTKLEIKR
- binding by ELISA relative to parental [7]: 0.04

B8: TPP-5339, Hu6C12-24 Fab variant VH: (E1Q, I48M, L70M, T72R, K74T, R84S, D89E, Q97A, T98R) (Fab, V domains shown)
VH: QVQLVQSGAEVKKPGASVKVSCKASGYTFTTYTIHWVRQAPGQGLEWMGYINPSSDYTRYNPKFKDRVTMTRDTSTSTAYMELSSLRSEDTAVYYCARGTRDYWGQGTTVTVSS
VL: DIQLTQSPSFLSASVGDRVTITCSAASSVSYIYWFQQKPGKAPKLLIYSTSTLPSGVPSRFSGSGSGTEYTLTISSLQPEDFATYYCHQRNSFPFTFGQGTKLEIKR
- binding in ELISA relative to parental Fab (relative to parental Fab) [12]: 0.3

B9: TPP-5325 (Fab, V domains shown)
VH: EVQLVQSGAEVKKPGASVKVSCKASGYTFTTYTIHWVRQAPGQGLEWIGYINPSSDYTSYNPKFKDRVTLTTDKSTSTAYMELRSLRSDDTAVYYCQTGTRDYWGQGTTVTVSS
VL: DIQLTQSPSFLSASVGDRVTITCSAASSVSYIYWFQQKPGKAPKLLIYSTSTLPSGVPSRFSGSGSGTEYTLTISSLQPEDFATYYCHQRNSFPFTFGQGTKLEIKR
- binding by ELISA relative to parental [7]: 0.07
